Source: patent US10006009B2, “Codon-optimized gene for mutated shrimp luciferase and method for use thereof” (JNC CORPORATION, priority 2013, dated 2018)

B1: nanoKAZ: mutated catalytic 19 kDa domain protein of Oplophorus luciferase encoded by the codon-optimized gene (SEQ ID NO: 1) (protein)
chain: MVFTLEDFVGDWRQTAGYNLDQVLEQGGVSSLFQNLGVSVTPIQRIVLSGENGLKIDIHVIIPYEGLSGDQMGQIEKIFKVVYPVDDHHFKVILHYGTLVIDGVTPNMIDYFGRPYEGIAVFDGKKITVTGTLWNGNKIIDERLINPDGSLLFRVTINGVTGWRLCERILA
B2: nanoKAZ gene: codon-optimized gene for the mutated catalytic 19 kDa domain of Oplophorus luciferase, SEQ ID NO: 2 (nucleic acid)
DNA: ATGGTCTTCACCCTGGAGGACTTCGTCGGCGACTGGAGACAGACCGCCGGCTACAACCTGGACCAGGTCCTGGAGCAGGGCGGCGTCAGCAGCCTGTTCCAGAACCTGGGCGTCAGCGTCACCCCCATCCAGAGAATCGTCCTTAGCGGCGAGAACGGCCTGAAGATCGACATCCACGTCATCATCCCCTACGAGGGCCTGAGCGGCGACCAGATGGGCCAGATCGAGAAGATCTTCAAGGTCGTCTACCCCGTCGACGACCACCACTTCAAGGTCATCCTGCACTACGGCACCCTGGTCATCGACGGCGTCACCCCCAACATGATCGACTACTTCGGTAGACCCTACGAGGGCATCGCCGTCTTCGACGGCAAGAAGATCACCGTCACCGGCACCCTGTGGAACGGCAACAAGATCATCGACGAGAGACTGATCAACCCCGACGGCAGCCTGCTGTTCAGAGTCACCATCAACGGCGTCACCGGCTGGAGACTGTGCGAGAGAATCCTGGCCTAA
modifications: synthetic DNA

System: CHO-K1 cells
Assay: Comparison of expression between nanoKAZ and nanoLuc genes in CHO-K1 cells
Format: cell-based, Chinese hamster
Source text: In order to compare the gene expression efficiency between the nanoKAZ gene and the nanoLuc gene in the cultured cell system, an expression vector that was different only in the nanoKAZ gene sequence and the nanoLuc gene sequence was constructed. The expression vector constructed was transfected to CHO-K1 cells. Then, the expression level of luciferase activity was compared by the following procedure. In the nanoLuc gene, the gene sequence described in Hall et al. (2012) ACS Chem. Biol. […] was chemically synthesized and provided for use.
The vector was introduced into CHO-K1 cells by the method described in EXAMPLE 3. After incubation for 23 hours, the culture medium and the cell extract were recovered. The luminescence activity in the culture medium and the cells was measured by the method described in EXAMPLE 4, using coelenterazine as a light-emitting substrate.

Molecule	luminescence activity relative to nanoLuc (with signal peptide, secreted into the culture medium)	expression relative to the nanoLuc gene (without secretory signal, in the culture medium and the cells)
B1	about 1.4 fold	–
B2	–	about 2 fold
